Data taken from the DeepSol protein solubility set.

experiment: soluble on expression in E. coli; label from the status in PepcDB or PDB records

Sequence	soluble on expression in E. coli
MSGAAADGIDDRDIPKQEFLDAAFNGDIDKIDGLLRDKKVHIDSVDDDQVTALHIAAAMGNNKLVVRLLDYGANIHAVNHLGMTAYHYAAREGKLAVLDTLMQRGASKNQTTALGVTALTLACAGGHADVVRRLIRISNETPRSKQSLAPTPLIVATCSKSPQICSYLADFRVNLDESMKNLGNLTALSMAIVCTPGVYMVRTLIDLGASVNKKGLGDKTAEELAIMLNRKDLIHFFNEKKSYRSRMNADSDVRKEIKNDHIIERELGAPAQNGVSPLMYATTVRSINSAKHLVLHRDSDVNMRDNLHITSLQIASLLRVDDIIPLLLQRRADVTVVNKYGSTAYDLFLLSCDFLEPGQLRGQLHCHRPIDSKSNLNSSSSNIYKALRSQGILTKVGSQIGINSAKIELIEPKHWLAAKTKYQPAKLRNNYKFASVEDILKSCKVAKRPETNECDNETEAIREYMEECQSFAVFCFSDFYGERENNKATIPDYYDKAQDNAKRYAYLRMDGLDKKNSGRQENVSKLIPVRPRKDSIEREYRKPRNIALVDSPSQSQMRTTPRMLKKRDTDYFSAQAGRARASSTSLQVPTVTVTRQRHVTSPVIEDMIWNHFVRRGKNELMRVLQAAEIDKHSFFSLQQKDLEAMNSYTPENMKLIEDIQTAILSRSL	not soluble
MITTGKVWKFGDDISTDEITPGRYNLTKDPKELAKIAFIEVRPDFARNVRPGDVVVAGKNFGIGSSRESAALALKALGIAGVIAESFGRIFYRNAINIGIPLLLGKTEGLKDGDLVTVNWETGEVRKGDEILMFEPLEDFLLEIVREGGILEYIRRRGDLCIR	soluble
MRDIQQVLERWGAWVANNHEDVTWSSIAAGFKGLIPSKVKSRPQCCDDDAMVICGCMARLNRNNNDLHDLLVDYYVFGMTFMTLARKHGCSDGYIGKKLQKAEGVVEGMLMMLGVRLEMDKYIEHP	not soluble
MAHHHHHHMPLFCSSTTFMLKVRRAAVKTWKCFAFIAFVSSSMRYISCGFTADDNTKSKSCPFDALGISNNSDMTTVKAAYRSKCQTEHPDVGGTEEGFRRIRWAYESCCEKLVKTGPRSNSEFDGSSHESSSKQKDDEGDYTHSYYRYKSKDERYHEQRQMFYYLFSSVETRNDIDNLLSKALRSHCFDAIDVSEPLRLSLRNYHRVTGYGEHHLTSCFAAMEHWEEYTQRRADVTQYHIMLILYTDGPKPGLTAQLISEGVEAIMEQMCVKGIEYDDWSLTLAHKAYRVCPYPST	not soluble
GPGSMDIDSPYKILGIPQSASVADIRAAFRRLALTTHPDKQGSNTSGGEAQMMLYSSHPFYVIKEASDILLDPVRRAEYDEGQQRMYARSIGVVSDVHDISDFRLVEERKALCSEDRVCGDVTIQVYEMECRCGGAFEIFLVKGEEGNMDKLCGCDSCSLIVSVRRQTQQ	soluble
MGSSHHHHHHGGTGENLYFQGGSGAFRGSSARLAATPGVGIAPETTPVKYVPEMLNIQNAKWWNGRGKPVYRSTYNEKSWLEKARWGAFTKGSRPVMRQRYSAAALKEALEMVPEGFETCDVPRPPQRIRAQSEGVVGRWYTNYWTLHSVRYQCQLAGVEWQFGERQRPRTNYDEPHMYTDFEETKAIRDYRSRWINVNRSLVGMSRRMKESEEEARYLHFKKVQDTFWSNRKVLVNRIKSMHNQGTLQSAKDLPIKTINIKAFLAE	not soluble
MEHQTTRNVILITEGSLQSSLLKDVLETKLGINVLLITPENLASPFVRNQSISAIVLDYSVITDEVFARYMEFKTPNLTGTLEILINCDKSISTDELFVWGALAGIFYTSDDIQTLQTGIDKVLQGDMWFSRKFAQQYITHLRRHSRPINKNVPA	not soluble
MSLNLRESFISKFAASFVKPRFEIWFAAVLIPENDQAFWVRYSTLNPRNNRDLFPMGTLWVSLFDRKNPKNHRTTTQSFPYEEVLIKEHAIEFPEASVGPDHMSGKIQTSMSEDLAWDLEFRHKLEPTGHLPRWLEKTPINHIWGTNRVSELFWTFVPKFDDDPDDWSMEIVTVRPQPFTPTLTFVTLLKRGIPIHQHSIFRSLRSSTKIEYPKLHFKTRLDDYEISVESEMDKDQIAGYIYRDPDGSPRYIEQSDIGNVKCVIRHRRKETVLNAKQAAGVEFHGLRPWRKDHEYLDPYQTEGHHHHHH	not soluble
MAHHHHHHMSTSLRHTALHAFHVGRRARMAPFSGYDMPINYAAGAVREHLHTREAASIFDVSHFGVVEVFGADREKFLEWLTPSAPSRMPSGKAALTMFLNDRAGVKDDCIVTRYDDRLVVVVNAGCKDKMIAYMRQSVADFTGDVALEMEDRAIVTVQGPKAASALAPHVEDLDKLLFMQGRQDVDIRGMRIKTLTRCSYSGEDGFDIVMREEDALPIVELLLQNPDVQAAGLAARDTLRTEAGLNLYSHELSEDIDPVAARCMWCVPKHRMTEGGFVGHERLAQLVKKAKELVPRVRVGILAAPERGPIPRNGTPVLVEGKCVGVVTSGVPSPTLGRNIALGYVDRSYSNIGQQVGLDVRGKLVKAEIVNSRFVAPRYYRG	not soluble
MGSDKIHHHHHHMNDDIYDEMVRERGREYFLKNMVKYCVKRGNTLHGTVYGSDKYITKVDLKTKTGICTCPYQYNCKHAYALLESYKSGKYVDGDELFLNFSKLDKLEILKIFESIIEKHNLWDEFITEDKTLLDTAKNMLELTKIEKKNVFTFTSFLRNQFLKNAGNEELLLIIPDVIKYIQERKKLEEILFLIVDELFERGKTDKDTLKKLIELSRKYRELWMVKDNILDYEYFELLEY	not soluble
EEGLSGSKTFKIITKDYDIMNKEIKERLGRYCTFTKVTIDEENNSFVEISCVINKLEEQKLKEIINDVDPDAFIAIYDTAEVKAGNMKKSDIY	soluble
MSLCGIAGWVSFERDLSTQRAVAETMTKTMALRGPDDEGLWLDRRAALGHRRLSIIDLEGGRQPMTADEDGRTLACLVYTGEVYNFRELRLELQGLGHAFRTRSDTEVVLRAYLQWGEAMLERLNGMYAFALWDAREQRLLLVRDRMGVKPLYYYPMPDGVLFGSEPKAILAHPEAERRVTAGGLREMLDLVKTPEAAAFAGMHEVRPGQVVTIDRGGLRKRRYWQLEAREHTDDLPTTIRTVRELLDDIVERQIIADVPLCTLLSGGLDSSVVTALAARSMRRQGKGTVRSFSVDFVKHGAAFEADYLRGSPDAPFVRDLAAHAGTEHREILLESRELADPRLRAAVLGAQDLPPAYWGDMLPSLYKLFEAIRAQSTVALSGESADEVFGGYRWFHDAAAVDGDAFPWLAGSSGAFFDGQSLIAPGLLRELDMPGFRRDSYAQALAEVPRLASDSTRERRMREISHMHLTRFVQALLDRKDRMSMAVGLEVRVPFCDHRLVEYVFNAPWSMKNFDGREKSLLRAAGKDVLPESIVRRVKSPYPATQDPAYEQALRQGLARVLDDSRSPALPLLDKAAAWKLLDRPFGKTSTSPERAGLEMALGLDEWLRHHQVSLDLEGHHHHHH	not soluble
MGQNQFRWSNEQLREHVEVIDGTRSPHIVLRNATYLNSYIREWMQANIWIYDDRIIYVGEKLPEQLHECEVIDCDGKYVVPSYIEPHAHPYQLYNPETLANHAMQFGTTTFINDNLTLFFTLKRELEHHHHHH	not soluble
MGSDKIHHHHHHMETKINSKALKAEALRLGFSACGIAPAEPIDQAHQNALKMWLDADRQAGMTYMANHFDKRCDPALLVEGTRCVVSVALNYYPATRIPDEEYQFAWYAYGKDYHDLMREKLATLFRFIQESDVPELNGRMFCDTAPVPERYWAWRAGLGWIGKNTQLIIPHAGSTFFLGELFLNTEADTYDRPQPNRCGRCNRCLQACPTKALETPYSLNAHRCLSYLTIENKSEIPDSIAPFMGNRVYGCDECQKACPWNRFATPCRTPELQPSPEFMNMKKEDWKQLSEEKYRALFKGSAVKRAKYSGLIRNIRQMED	not soluble
MTIIKYIKFVVIIVIVTIVFSCSKNEAGNSEYDPSLPISLTDFFPIQGGMATRMVIEGANFGTDLSQIKVFFNQKEASILNVKNSIIYLLVPKLPGNDCIVTVKVGNQEARFTRNFQYIENYSVTTIAGQPGTNLFVEGTLAAAQFGPVQHLAIDDENNLFITERNGSDGKGTCSVLNEESGTVTFLFKASDNLNVPTVNAQTQNVYIPLDGGYTFYELNPVNQWIAKSRLVLHPSKEQQEAGMDDFEINWKHSLAFSRYDNMIYTRSYGGDLIKVDPETRVGQKIGNFFPNTDSFIVAHPTQPEILYIAYAAKHVIYTYNIETGEHKLFAGAFGQSGWNDGIATDAEFNSPRQMSLDMEGNIYIADSGNHCIRMIDKNGIVTTPIGQPGEAGYADGSPDMALLNDPRGVAVNSEGDVYIADLGNRCIRKLTLQLEHHHHHH	not soluble
